From patent publication US20060134087A1, “ITI-D1 Kunitz domain mutants as hNE inhibitors” (Dyax Corp., priority 1988, published 2006)

What was measured:
hNE [1] = molecular target: T1, hNE (Homo sapiens, UniProt P08246); test: Temperature stability, residual inhibitory activity for hNE; assay type: physicochemical; set-up: Residual hNE Inhibitory Activity: unit not given here; details: for Residual hNE Inhibitory Activity: 18 hours, pH 7.0, 1 μM protein; for temperature below which full inhibitory activity is maintained: thirty minutes, 1 μM, phosphate buffer pH=7
T1 sequence (P08246 30-267): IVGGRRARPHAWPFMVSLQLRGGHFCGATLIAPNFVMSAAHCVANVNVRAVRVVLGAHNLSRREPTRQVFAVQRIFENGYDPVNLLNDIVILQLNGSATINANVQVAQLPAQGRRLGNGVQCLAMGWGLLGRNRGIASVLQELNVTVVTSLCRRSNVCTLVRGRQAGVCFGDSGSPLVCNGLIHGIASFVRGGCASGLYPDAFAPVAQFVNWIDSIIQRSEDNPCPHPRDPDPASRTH
Experimental: The stability of EPI-HNE proteins to temperatures in the range 0° C. to 95° C. was assessed by incubating the inhibitors for thirty minutes at various temperatures and determining residual inhibitory activity for hNE. In these experiments, protein concentrations were 1 μM in phosphate buffer at pH=7. As is shown in Table 40, the four inhibitors are quite temperature stable.
Proteins were incubated at the stated temperature for 18 hours in buffer at pH 7.0. In all cases protein concentrations were 1 μM. At the end of the incubation period, aliquots of the reactions were diluted and residual hNE-inhibition activity determined.

hNE [2] = molecular target: T1, hNE; test: Storage stability of purified inhibitor stock solutions; assay type: physicochemical
Experimental: Residual ammonium sulfate was removed from the EPI-HNE-2 preparation by ion exchange chromatography. The solution from the ammonium sulfate precipitation step was applied to a strong cation-exchange column (50 ml bed volume Macroprep 50S) (Bio-Rad Laboratories, Inc, Hercules, Calif.) previously equilibrated with 10 mM NaCitrate, pH=3.5. After loading, the column was washed with 300 ml of 10 mM NaCitrate, pH=3.5. EPI-HNE-2 was then batch-eluted from the column with 300 ml of 50 mM NH4OAc, pH=6.2. Fractions containing EPI-HNE-2 activity were pooled and the resulting solution was lyophilized. The dried protein powder was dissolved in 50 ml dH2O and the solution was passed through a 0.2μ filter (#4192, Gelman Sciences, Ann Arbor, Mich.). The concentration of the active inhibitor in the final stock solution was determined to be 2 mM (13.5 mg/ml).
The lyophilized protein powder was dissolved in 26 ml dH2O and the solution was passed through a 0.2μ filter (#4912, Gelman Sciences, Ann Arbor, Mich.). […] EPI-HNE-3 stored in water solution (without any buffering) deteriorated when kept at 4° C.

| Substance | Residual hNE Inhibitory Activity (hNE [1]; Temperature 0 ° C.) | Residual hNE Inhibitory Activity (hNE [1]; Temperature 23 ° C.) | Residual hNE Inhibitory Activity (hNE [1]; Temperature 37 ° C.) | Residual hNE Inhibitory Activity (hNE [1]; Temperature 52 ° C.) | Residual hNE Inhibitory Activity (hNE [1]; Temperature 65 ° C.) | Residual hNE Inhibitory Activity (hNE [1]; Temperature 80 ° C.) | Residual hNE Inhibitory Activity (hNE [1]; Temperature 93 ° C.) | temperature below which full inhibitory activity is maintained (hNE [1]) | activity after storage (hNE [2]; stock solution 2 mM, 4° C. and −70° C., more than 11 months) | activity after storage (hNE [2]; stock solution 250 μM, −70° C., more than six months) | material active after storage (hNE [2]; water solution without buffering, 4° C., five months) |
| --- | --- | --- | --- | --- | --- | --- | --- | --- | --- | --- | --- |
| EPI-HNE-2: EPI-HNE-1 with four additional residues EAEA at the amino terminus, SEQ ID NO 008 | 101 | 103 | 97 | 101 | 95 | 101 | 88 | below 90 °C | no loss in activity | – | – |
| EPI-HNE-3: ITI-D2(3-58) with R15I, I18F, Q19P, L20R; SEQ ID NO 026 (AACNLPIVRGPCIAFFPRWAFDAVKGKCVLFPYGGCQGNGNKFYSEKECREYCGVP; Epi-HNE-3) | 96 | 105 | 99 | 100 | 87 | 79 | 57 | below 65 °C | – | no loss of activity | about 70% |
